± gives the standard deviation.

This series can be described thus: protein stability index of a GFP-peptide fusion (GPS, HEK-293T) (PSI 1-6); higher = more stable. The following applies: c terminus: a fixed tail appended.
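Further: 24-mer peptide tiles fused after GFP, lentivirally expressed, FACS-sorted into six equal bins by GFP/DsRed ratio, decoded by Illumina sequencing, PSI is the read-weighted mean bin number.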

For QLSATGQKLYVRLFQRKLSWIKMT [FAN1], the protein stability index is, setting by setting: (treatment: DMSO) 2.3 ± 0.6; (treatment: MLN4924 1 uM, 8 h) 2.04 ± 0.17.
In the same order, the values of HGVRAKVQPQARKKEMEMRQLQRG [CPN1] are 4.38 ± 0.38 and 4.5 ± 0.25.
In the same order, the values of LTVVSFYQVAALQGDLASLRAELQ [TNFSF13B] are 2.77 ± 0.7 and 2.63 ± 0.68.
For PLLSGVAQEVSPCGPPSLGAVLAL [MFSD9] the same measures were 2.4 ± 0.35 and 2.42 ± 0.18.
With VTKMFQKIQDLIDDKDALVFVLID [TRIP13], the protein stability index is, setting by setting: (treatment: DMSO) 2.72 ± 0.63; (treatment: MLN4924 1 uM, 8 h) 2.47 ± 0.17.
In the same order, the values of LSETADPFFVLNSDVICDFPFQAM [GMPPB] are 2.44 ± 0.26 and 2.6 ± 0.35.
In the same order, the values of AQTLAMMLQEQLDAINEEIRMIQE [PPFIA4] are 2.95 ± 0.29 and 2.7 ± 0.46.
For QCKEWQVLMCGFPFLLLFLGNFFT [TMEM120A] the same measures were 2.81 ± 0.053 and 2.92 ± 0.53.
Consider EQGEPLWTLEDEIHSPAHPEIEKA [ZNF649], for which the protein stability index reads like this: (treatment: DMSO) 5.44 ± 0.44; (treatment: MLN4924 1 uM, 8 h) 5.57 ± 0.22.
Turning to SQDEPIALDKQHSRDSAAITHSTY [NOL4L], the protein stability index by setting is: (treatment: DMSO) 5.01 ± 0.22; (treatment: MLN4924 1 uM, 8 h) 5.08 ± 0.16.
For IGGHLVRDNDHPDHSSRELSKILA [FUT8] the same measures were 3.92 ± 0.19 and 3.9 ± 0.18.
For LLPPGEPPLLGTFPRDHTSLALVQ [ANKRD40], the protein stability index reads like this: (treatment: DMSO) 3.48 ± 0.096; (treatment: MLN4924 1 uM, 8 h) 3.39 ± 0.31.
In the same order, the values of GEDQWNPNGKHSTNFVSRYDPRFN [KLHL14] are 3.83 ± 0.23 and 3.57 ± 0.41.
With PLPESRREIEELLAEAKYYLVQGL [KCTD10], the protein stability index is, setting by setting: (treatment: DMSO) 2.56 ± 0.2; (treatment: MLN4924 1 uM, 8 h) 2.77 ± 0.4.
In the same order, the values of HGIRPPQLEQPEKMPVLKAEASHY [RHOBTB3] are 4.41 ± 0.11 and 4.41 ± 0.2.
For LPGAVATIVKPLSAIPQPTITKQE [HNF4A] the same measures were 4.51 ± 0.24 and 4.54 ± 0.17.
In the same order, the values of GFVDLLDGENLKNEEETPSCMASL [CDC25A] are 4.64 ± 0.25 and 4.62 ± 0.13.
As for EDDDEEDTDKLLNSASDPSLKDGL [PSD2], the protein stability index (treatment: DMSO) is 5.51 ± 0.3 and the protein stability index (treatment: MLN4924 1 uM, 8 h) is 5.46 ± 0.33.
In the same order, the values of ILGETQEEEDEILPRKDYESLDYD [CLCN6] are 5.33 ± 0.2 and 5.18 ± 0.086.
Consider LLMLENFIDGKFLPCSSYIDSYDP [ALDH8A1], for which the protein stability index runs as follows: (treatment: DMSO) 1.97 ± 0.65; (treatment: MLN4924 1 uM, 8 h) 2.05 ± 0.56.
SVMYRKWKESKGKDREYTDIIRKQ [CDC34]: the protein stability index came out at 3.52 ± 0.18 (treatment: DMSO) and 3.76 ± 0.25 (treatment: MLN4924 1 uM, 8 h).
Take YQRVLPLPIFTPAKMGATKEERED [TCAP]: the protein stability index reads like this: (treatment: DMSO) 3.01 ± 0.69; (treatment: MLN4924 1 uM, 8 h) 3.62 ± 0.78.
On to DSTNVEAAFQTILTEIYRIVSQKQ [RAB11A], for which the protein stability index reads like this: (treatment: DMSO) 2.26 ± 0.35; (treatment: MLN4924 1 uM, 8 h) 2.46 ± 0.034.
For WAISSWFRRGPAPQDQAGPGGAPR [CLPTM1] the same measures were 2.75 ± 0.47 and 3.21 ± 0.48.
For DVKTNVQLLKGRVDNISTLDSEIK [CD207] the same measures were 3.74 ± 0.48 and 4.01 ± 0.3.
Consider VLKKQDAFYKEQLARLEERSSEFY [CHCHD3], for which the protein stability index was found to be 3.45 ± 0.34 (treatment: DMSO) and 3.48 ± 0.12 (treatment: MLN4924 1 uM, 8 h).
Take SLSHINAYACLVCGKYFQGRGLKS [USP39]: the protein stability index by setting is: (treatment: DMSO) 2.14 ± 0.39; (treatment: MLN4924 1 uM, 8 h) 2.07 ± 0.42.
For IGESMYGDFEEAFDHLQNRLIATK [TENT5C] the same measures were 3.63 ± 0.12 and 3.59 ± 0.067.
On to GLADVEANYVIVRAYQYTTLTSVQ [SLC35F2], for which the protein stability index worked out at 2.24 ± 0.53 (treatment: DMSO) and 2.66 ± 0.43 (treatment: MLN4924 1 uM, 8 h).
For GPAAFVDYFERNWEPRRDMWVRFR [ZSWIM9] the same measures were 2.4 ± 0.12 and 2.46 ± 0.37.
For RYCQCNPDDSTSEDGIHTLTCALM [PSD2] the same measures were 3.96 ± 0.32 and 4.09 ± 0.18.
For GSLYVFGGTTGYIYSTDLHKLDLN [KLHDC10] the same measures were 2.4 ± 0.5 and 2.66 ± 0.46.
In the case of IISKPVPQTLIMAYDYAKEVNSAE [FEM1C], the protein stability index runs as follows: (treatment: DMSO) 2.93 ± 0.34; (treatment: MLN4924 1 uM, 8 h) 2.81 ± 0.16.
In the same order, the values of SILNAKAPALPPGGTDPHGYHQVP [FOXJ1] are 3.6 ± 0.2 and 3.66 ± 0.14.
As for CRIQDLCAMEDHNCEQLCVNVPGS [MATN2], the protein stability index came out at 3.01 ± 0.44 (treatment: DMSO) and 2.77 ± 0.32 (treatment: MLN4924 1 uM, 8 h).
In the same order, the values of SLEESVGKPLYLIFRNLCQMQEDN [INTS3] are 2.45 ± 0.45 and 2.46 ± 0.22.
In the same order, the values of ILNLKKKECKDRGFEYDGKINAWD [NLN] are 2.97 ± 0.26 and 3.43 ± 0.6.
RSLSPSLSSVDMRMTSSPSSIPRR [RAD54B]: the protein stability index came to 4.66 ± 0.15 (treatment: DMSO) and 4.69 ± 0.18 (treatment: MLN4924 1 uM, 8 h).
In the same order, the values of SAGDADPENGEIKPASKPAGSSHT [ELOA2] are 5.42 ± 0.42 and 5.47 ± 0.44.
With KGFIQKGNLNIHQRTHTGEKPYGC [ZNF649], the protein stability index is 3.67 ± 0.14 (treatment: DMSO) and 3.68 ± 0.2 (treatment: MLN4924 1 uM, 8 h).
PMMKAAMYSVEITVEKDKVTGETR [PALM] came in with a protein stability index (treatment: DMSO) of 4.16 ± 0.33 and a protein stability index (treatment: MLN4924 1 uM, 8 h) of 4.29 ± 0.14.
In the same order, the values of ARLFDEPQLASLCLDTIDKSTMDA [BTBD1] are 4.35 ± 0.43 and 4.53 ± 0.17.
In the same order, the values of SMEKDATLNVDRKEKCVSLPDCCH [DLC1] are 4.81 ± 0.2 and 4.92 ± 0.17.
For ATPGEYSVNICGMNEHPVCSRTWT [SPAG8] the same measures were 2.44 ± 0.28 and 2.57 ± 0.39.
With LMDIVPADDHRYKFADNKWSVTGK [TBX5], the protein stability index is, setting by setting: (treatment: DMSO) 3.63 ± 0.29; (treatment: MLN4924 1 uM, 8 h) 3.54 ± 0.15.
As to RLVHTTAIEHFQPNADLLFSDPSQ [FCHO1], the protein stability index (treatment: DMSO) was 3.78 ± 0.15 and the protein stability index (treatment: MLN4924 1 uM, 8 h) was 3.87 ± 0.24.
Regarding EEEPTGAGLNKDKETEERTDGERV [SDE2], the protein stability index runs as follows: (treatment: DMSO) 5.84 ± 0.13; (treatment: MLN4924 1 uM, 8 h) 5.61 ± 0.37.
For DRNTKRDVTLEASRESSKPRAVLK [PPP2R2C] the same measures were 4.62 ± 0.23 and 4.79 ± 0.17.
For GSVLRIQPLRTPRDEAIYECVASN [PTPRD] the same measures were 3.24 ± 0.12 and 3.17 ± 0.43.
In the case of AYQQGVGYQMLGNVVTIGLAFFPF [PHTF1], the protein stability index was determined as 2.93 ± 0.39 (treatment: DMSO) and 3.13 ± 0.067 (treatment: MLN4924 1 uM, 8 h).
In the same order, the values of MEPATAPRPDMAPELTPEEEQATK [PTPN9] are 5.71 ± 0.097 and 5.08 ± 0.48.
In the same order, the values of FRIYKSVIQAVQKSEEGHPFKAYL [RTN3] are 2.4 ± 0.23 and 2.29 ± 0.21.
In the same order, the values of SSAYVKTSEKLGEWNEKVTQSDLY [TPD52L2] are 4.02 ± 0.19 and 3.98 ± 0.17.
Take RTILLSVISLLNEPNTFSPANVDA [CDC34]: the protein stability index is 2.77 ± 0.41 (treatment: DMSO) and 2.66 ± 0.54 (treatment: MLN4924 1 uM, 8 h).
In the same order, the values of DPGPEPEEEPGVRNGMASEGLNSS [PSD2] are 5.58 ± 0.25 and 5.44 ± 0.35.
As for DIWSKSNYQVFQKVTDHATTALLH [MED27], the protein stability index is, setting by setting: (treatment: DMSO) 2.44 ± 0.27; (treatment: MLN4924 1 uM, 8 h) 2.34 ± 0.31.
In the same order, the values of RDLALVSRDGMNIVLNKINQILME [INTS3] are 2.58 ± 0.28 and 2.69 ± 0.67.
For RLNGTAKGERRREPGGYDSSSTLM [DVL3], the protein stability index reads like this: (treatment: DMSO) 3.62 ± 0.13; (treatment: MLN4924 1 uM, 8 h) 4.01 ± 0.31.
In the same order, the values of NQMDKARRHPQGAWKELDRNYLNY [CHGB] are 2.77 ± 0.32 and 2.84 ± 0.19.
As for KDQQTFARSVGLKWRKVGRSLQRG [TRADD], the protein stability index runs as follows: (treatment: DMSO) 3.27 ± 0.34; (treatment: MLN4924 1 uM, 8 h) 3.49 ± 0.3.
In the same order, the values of GIGGGIGGGSSRISSVLAGGSCRA [KRT16] are 3.87 ± 0.23 and 4.05 ± 0.24.
Turning to GGLGTPLRLPMLNTEVVQVAAGRT [NEK8], the protein stability index turned out to be 4.11 ± 0.35 (treatment: DMSO) and 4.06 ± 0.31 (treatment: MLN4924 1 uM, 8 h).
Turning to ENAPIGTLLLRLNATDPDEGTNGQ [PCDHGC5], the protein stability index is, setting by setting: (treatment: DMSO) 4.95 ± 0.15; (treatment: MLN4924 1 uM, 8 h) 4.92 ± 0.18.
In the case of RSDLYSSGRDRVGRQERGLPPSME [RBMX], the protein stability index (treatment: DMSO) stood at 4.41 ± 0.091 and the protein stability index (treatment: MLN4924 1 uM, 8 h) came to 4.51 ± 0.23.
Consider AFMNQEITKAFHVRKANRIKECLS [RHOBTB1], for which the protein stability index is, setting by setting: (treatment: DMSO) 2.41 ± 0.18; (treatment: MLN4924 1 uM, 8 h) 2.53 ± 0.33.
In the same order, the values of PEGKRVPKRLRCWEEEEDHEKERP [FANCE] are 5.21 ± 0.25 and 5.26 ± 0.27.
With YTFVPWLLSFKRGSALEEKENKIL [TNFSF13B], the protein stability index turned out to be 2.51 ± 0.59 (treatment: DMSO) and 2.22 ± 0.3 (treatment: MLN4924 1 uM, 8 h).
In the same order, the values of SFFFPPVNLPISFFRKLLDCCQVS [NLN] are 2.23 ± 0.77 and 2.25 ± 0.5.
Turning to ISKNKKKASNSIISCFNNAPPAKL [FAN1], the protein stability index was found to be 3.36 ± 0.21 (treatment: DMSO) and 2.79 ± 0.31 (treatment: MLN4924 1 uM, 8 h).
For MAGGKAGKDSGKAKAKAVSRSQRA [H2AZ2] the same measures were 4.73 ± 0.24 and 5.03 ± 0.25.
Turning to DECEKAYFYMSCLVKHKRIHSREK [ZNF649], the protein stability index runs as follows: (treatment: DMSO) 2.69 ± 0.14; (treatment: MLN4924 1 uM, 8 h) 2.9 ± 0.35.
In the same order, the values of AGSIGGLFFAVGIAQYALLGYFIR [SLC22A15] are 3.35 ± 0.72 and 3.4 ± 0.23.

(Values after the supplement of paper PMC10567573.)
